Assays:
[1] = molecular target: T1, Ad5FDgT fiber (Human Adenovirus 5 fiber with DogTag inserted at the HI loop domain of the fiber knob) (Human Adenovirus 5); experiment: covalent DogCatcher/DogTag conjugation to the virus capsid
T1 chain: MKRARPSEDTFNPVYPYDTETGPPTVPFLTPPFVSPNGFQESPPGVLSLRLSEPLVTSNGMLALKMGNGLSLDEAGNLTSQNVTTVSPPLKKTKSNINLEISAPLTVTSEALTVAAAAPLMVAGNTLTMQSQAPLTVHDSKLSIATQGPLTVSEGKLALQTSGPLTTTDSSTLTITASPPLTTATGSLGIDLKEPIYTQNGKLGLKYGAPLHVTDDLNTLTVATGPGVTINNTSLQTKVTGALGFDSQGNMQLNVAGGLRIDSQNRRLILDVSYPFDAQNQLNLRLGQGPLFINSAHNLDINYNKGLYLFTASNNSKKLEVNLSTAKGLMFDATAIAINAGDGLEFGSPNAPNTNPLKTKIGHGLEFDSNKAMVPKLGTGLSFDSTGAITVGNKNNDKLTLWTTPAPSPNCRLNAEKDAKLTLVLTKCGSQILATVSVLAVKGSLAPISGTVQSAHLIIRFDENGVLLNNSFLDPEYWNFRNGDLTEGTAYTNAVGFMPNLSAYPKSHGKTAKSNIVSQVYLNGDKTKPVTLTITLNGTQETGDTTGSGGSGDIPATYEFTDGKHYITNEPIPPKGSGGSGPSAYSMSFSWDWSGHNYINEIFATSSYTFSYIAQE

murine CD19 = molecular target: T2, murine CD19 (mouse, UniProt P25918 19-547); experiment: cell-based or functional assay
T2 sequence: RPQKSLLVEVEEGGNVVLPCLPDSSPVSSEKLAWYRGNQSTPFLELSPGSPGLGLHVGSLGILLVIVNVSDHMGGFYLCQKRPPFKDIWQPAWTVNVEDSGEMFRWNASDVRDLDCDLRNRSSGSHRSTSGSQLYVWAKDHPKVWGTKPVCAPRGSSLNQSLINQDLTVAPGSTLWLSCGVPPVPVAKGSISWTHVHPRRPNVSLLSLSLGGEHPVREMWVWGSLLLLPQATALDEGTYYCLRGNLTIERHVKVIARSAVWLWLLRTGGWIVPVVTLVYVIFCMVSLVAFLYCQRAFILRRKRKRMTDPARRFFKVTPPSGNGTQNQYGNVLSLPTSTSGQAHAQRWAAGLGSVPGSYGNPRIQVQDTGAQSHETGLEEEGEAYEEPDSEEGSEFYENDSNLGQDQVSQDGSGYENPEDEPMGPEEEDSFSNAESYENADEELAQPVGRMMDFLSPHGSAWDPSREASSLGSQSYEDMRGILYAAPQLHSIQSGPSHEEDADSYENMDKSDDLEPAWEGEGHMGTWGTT

[2] = molecular target: T1, Ad5FDgT fiber (Human Adenovirus 5 fiber …); experiment: SDS-PAGE gel shift of the fiber band after co-incubation at room temperature
[3] = molecular target: T1, Ad5FDgT fiber (Human Adenovirus 5 fiber …); experiment: SDS-PAGE (complete shift of the fiber-DogTag band) and western blot against the fiber tail, purified Ad-Ab complexes
murine CD8a [4] = molecular target: T3, murine CD8a (mouse, UniProt P01731 28-247); experiment: cell-based or functional assay
T3 sequence (P01731 28-247): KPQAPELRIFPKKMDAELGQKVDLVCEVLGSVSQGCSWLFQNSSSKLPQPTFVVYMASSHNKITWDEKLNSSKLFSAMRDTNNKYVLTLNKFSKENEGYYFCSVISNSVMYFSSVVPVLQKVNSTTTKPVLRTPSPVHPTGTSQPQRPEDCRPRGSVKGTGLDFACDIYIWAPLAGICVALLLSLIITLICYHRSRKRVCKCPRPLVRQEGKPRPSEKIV

murine CD8a [5] = molecular target: T3, murine CD8a; experiment: flow cytometry on murine splenocytes, gated on CD8+, detected with anti-His Tag antibody

B1: FMC63 scFv-DogCatcher fusion (anti-human CD19; IL-2 signal sequence-FMC63 scFv-(G4S)3-DgC-6xHis) (scFv)
scFv: DIQMTQTTSSLSASLGDRVTISCRASQDISKYLNWYQQKPDGTVKLLIYHTSRLHSGVPSRFSGSGSGTDYSLTISNLEQEDIATYFCQQGNTLPYTFGGGTKLEITGGGGSGGGGSGGGGSEVKLQESGPGLVAPSQSLSVTCTVSGVSLPDYGVSWIRQPPRKGLEWLGVIWGSETTYYNSALKSRLTIIKDNSKSQVFLKMNSLQTDDTAIYYCAKHYYYGGSYAMDYWGQGTSVTVSSGGGGSGGGGSGGGGSAMKLGEIEFIKVDKTDKKPLRGAVFSLQKQHPDYPDIYGAIDQNGTYQDVRTGEDGKLTFTNLSDGKYRLIENSEPPGYKPVQNKPIVSFRIVDGEVRDVTSIVPQGSSGSHHHHHH
notes: also called FMC163DgC (plasmid name as printed)
Question: Does B1 bind [1]?
Answer: binds

B2: 1D3DgC (1D3 anti-murine CD19 scFv fused to DogCatcher; IL-2 signal sequence-1D3 scFv-(G4S)3-DgC-6xHis) (scFv)
scFv: DIQMTQSPASLSTSLGETVTIQCQASEDIYSGLAWYQQKPGKSPQLLIYGASDLQDGVPSRFSGSGSGTQYSLKITSMQTEDEGVYFCQQGLTYPRTFGGGTKLELKGGGGSGGGGSGGGGSEVQLQQSGAELVRPGTSVKLSCKVSGDTITFYYMHFVKQRPGQGLEWIGRIDPEDESTKYSEKFKNKATLTADTSSNTAYLKLSSLTSEDTATYFCIYGGYYFDYWGQGVMVTVSSGGGGSGGGGSGGGGSAMKLGEIEFIKVDKTDKKPLRGAVFSLQKQHPDYPDIYGAIDQNGTYQDVRTGEDGKLTFTNLSDGKYRLIENSEPPGYKPVQNKPIVSFRIVDGEVRDVTSIVPQGSSGSHHHHHH
notes: also called lD3DgC; 1D3 scFv-DogCatcher
Question: What does the source list for B2?
Answer: binding result [1]: binds; gene expression in B cells in vivo, against the parent vector (murine CD19): ~2 fold

B3: 18B12DgC (18B12 anti-murine CD20 scFv fused to DogCatcher; IL-2 signal sequence-18B12 scFV-(G4S)3-DgC-6xHis) (scFv)
scFv: QVQLQQPGAELVRPGTSVKLSCKASGYTFTSYWMHWIKQRPGQGLEWIGVIDPSDNYTKYNQKFKGKATLTVDTSSSTAYMQLSSLTSEDSAVYFCAREGYYGSSPWFAYWGQGTLVTVSSGGGGSGGGGSGGGGSQIVMSQSPAILSASPGEKVTMTCRARSSVSYIHWYQQKPGSSPKPWIYATSNLASGVPGRFSGSGSGTSYSLTITRVEAEDAATYYCQQWSSKPPTFGGGTKLEIKGGGGSGGGGSGGGGSAMKLGEIEFIKVDKTDKKPLRGAVFSLQKQHPDYPDIYGAIDQNGTYQDVRTGEDGKLTFTNLSDGKYRLIENSEPPGYKPVQNKPIVSFRIVDGEVRDVTSIVPQGSSGSHHHHHH
notes: also called 18B12 scFv-DogCatcher
Question: Does B3 bind [1]?
Answer: binds

B4: DogCatcher (bacterially produced, 6xHis-TEV-DogCatcher) (other)
chain: MSYYHHHHHHDYDIPTTENLYFQGAMKLGEIEFIKVDKTDKKPLRGAVFSLQKQHPDYPDIYGAIDQNGTYQDVRTGEDGKLTFTNLSDGKYRLIENSEPPGYKPVQNKPIVSFRIVDGEVRDVTSIVPQ
notes: also called DgC; pDEST14-DogCatcher product
Question: Does B4 bind [2]?
Answer: binds

B5: YTS169DgC (YTS169 anti-murine CD8a scFv fused to DogCatcher; IGHV1-46 signal sequence-YTS169 scFv-(G4S)3-DgC-6xHis) (scFv)
scFv: EVKLQESGGGLVQPGRSLKLSCAASGFNFNDYWMGWVRQAPGKGLEWIGEINKDSSTINYTPSLKDKFTISRDNAQNTLYLQMSKLGSEDTAIYYCARARGMMVLIIPHYFDYWGQGVMVTVSSGGGGSGGGGSGGGGSDIVLTQSPAMAMSPGERITISCRASESVSTRMHWYQQKPGQQPKLLIYGASNLESGVPARFSGSGSGTDFTLTIDPVEANDTATYFCQQSWYDPWTFGGGTKLELKGGGGSGGGGSGGGGSAMKLGEIEFIKVDKTDKKPLRGAVFSLQKQHPDYPDIYGAIDQNGTYQDVRTGEDGKLTFTNLSDGKYRLIENSEPPGYKPVQNKPIVSFRIVDGEVRDVTSIVPQGSSGSHHHHHH
notes: also called YTS169 scFv-DogCatcher; anti-mCD8 YTS169
Question: Does B5 bind [3]?
Answer: binds

Question: And the “gene expression in CD8a+ T cells in vivo” value (murine CD8a [4])?
Answer: ~2 fold

B6: 2.43DgC (2.43 scFv fused to DogCatcher; IGHV1-46 signal sequence-2.43 scFv-(G4S)3-DgC-6xHis) (scFv)
scFv: EVQLVESGGGLVQPGRSLKLSCAASGFTFSNYYMAWVRQAPTKGLEWVAYINTGGGTTYYRDSVKGRFTISRDDAKSTLYLQMDSLRSEDTATYYCTTAIGYYFDYWGQGVMVTVSSGGGGSGGGGSGGGGSDIQLTQSPASLSASLGETVSIECLASEDIYSYLAWYQQKPGKSPQVLIYAANRLQDGVPSRFSGSGSGTQYSLKISGMQPEDEGDYFCLQGSKFPYTFGAGTKLELKGGGGSGGGGSGGGGSAMKLGEIEFIKVDKTDKKPLRGAVFSLQKQHPDYPDIYGAIDQNGTYQDVRTGEDGKLTFTNLSDGKYRLIENSEPPGYKPVQNKPIVSFRIVDGEVRDVTSIVPQGSSGSHHHHHH
notes: also called 2.43 scFv-DogCatcher
Question: Does B6 bind (murine CD8a [5])?
Answer: binds
